The values below come from US20240342320A1 (GUANGZHOU GENBIONOVA MEDICAL TECHNOLOGY, published 2024).

Positions of bridges follow the written chain, without caps; N, C: chain ends. Non-standard residues stand in square brackets, D forms with d. Primed or numbered codes have the meaning given here. No end group written: not given here. PEG4′ = not defined here; NOTA′ = NOTA chelator

Assay [1] concerns the target Integrin α6β4 protein. The assay is described as follows: MST, dye-labelled integrin α6β4, run 1. The procedure: (§1) The affinity between these 18 polypeptides and integrin α6β4 was detected by microscale thermophoresis (MST) method as follows: [0053] 1) Integrin α6β4 protein was dissolved to 800 nM, and polypeptide was dissolved to 100 μM. [0054] 2) A RED-tris-NTA second-generation dye was diluted to 100 nM by using the MO series RED-tris-NTA protein labeling kit. [0055] 3) 100 μl α6β4 protein was mixed with 50 μl dye and incubated at room temperature for 30 min, so that the α6β4 protein binds to the dye. [0056] 4) 10 μl polypeptide was transferred into a PCR tube, and was diluted with PBST (containing 0.05% Tween 20) at a ratio of 1:1 to 16 gradients of concentrations. [0057] 5) 3 μl protein/dye mixture was transferred into a PCR tube, 3 μl of 16 different concentrations of polypeptides was respectively added and mixed well. [0058] 6) The mixture was absorbed by capillary and loaded on machine (instrument model Monolith NT.115) to assay, parameters were set as 80% LED/excitation power and medium MST power. [0059] 7) MO. Affinity Analysis software was used to calculate the equilibrium dissociation constant KD between α6β4 protein and polypeptide by KD fitting mode.

Assay [2] deals with Integrin α6β4 protein. The assay is described as follows: MST, dye-labelled integrin α6β4, run 2. The procedure: as §1
The target of assay [3] is Integrin α6β4 protein. The assay is described as follows: MST, dye-labelled integrin α6β4, run 3. As to the method:
as §1

Assay [4] addresses Integrin α6β4 protein. The assay is described as follows: MST, ratio of mean KD against …. The procedure: as §1
For assay [5], the target named is Integrin α6β4 protein. The experiment in a line: MST, dye-labelled integrin α6β4, mean of 3 runs. The procedure: as §1
Assay [6] has as its target Integrin α6β1. The experiment in a line: MST (FIG. 2B), integrin α6β1.
Assay [7] addresses Integrin α6β4 protein. The experiment in a line: MST, dye-labelled integrin α6β4; unrounded mean of the table's 0.02 µM. The procedure:
as §1

For assay [8], the target named is Integrin α6β4 protein. The assay is described as follows: MST, integrin α6β4.

Sequence of Integrin α6β1 (chain, as listed by the source, chain 1 of 2): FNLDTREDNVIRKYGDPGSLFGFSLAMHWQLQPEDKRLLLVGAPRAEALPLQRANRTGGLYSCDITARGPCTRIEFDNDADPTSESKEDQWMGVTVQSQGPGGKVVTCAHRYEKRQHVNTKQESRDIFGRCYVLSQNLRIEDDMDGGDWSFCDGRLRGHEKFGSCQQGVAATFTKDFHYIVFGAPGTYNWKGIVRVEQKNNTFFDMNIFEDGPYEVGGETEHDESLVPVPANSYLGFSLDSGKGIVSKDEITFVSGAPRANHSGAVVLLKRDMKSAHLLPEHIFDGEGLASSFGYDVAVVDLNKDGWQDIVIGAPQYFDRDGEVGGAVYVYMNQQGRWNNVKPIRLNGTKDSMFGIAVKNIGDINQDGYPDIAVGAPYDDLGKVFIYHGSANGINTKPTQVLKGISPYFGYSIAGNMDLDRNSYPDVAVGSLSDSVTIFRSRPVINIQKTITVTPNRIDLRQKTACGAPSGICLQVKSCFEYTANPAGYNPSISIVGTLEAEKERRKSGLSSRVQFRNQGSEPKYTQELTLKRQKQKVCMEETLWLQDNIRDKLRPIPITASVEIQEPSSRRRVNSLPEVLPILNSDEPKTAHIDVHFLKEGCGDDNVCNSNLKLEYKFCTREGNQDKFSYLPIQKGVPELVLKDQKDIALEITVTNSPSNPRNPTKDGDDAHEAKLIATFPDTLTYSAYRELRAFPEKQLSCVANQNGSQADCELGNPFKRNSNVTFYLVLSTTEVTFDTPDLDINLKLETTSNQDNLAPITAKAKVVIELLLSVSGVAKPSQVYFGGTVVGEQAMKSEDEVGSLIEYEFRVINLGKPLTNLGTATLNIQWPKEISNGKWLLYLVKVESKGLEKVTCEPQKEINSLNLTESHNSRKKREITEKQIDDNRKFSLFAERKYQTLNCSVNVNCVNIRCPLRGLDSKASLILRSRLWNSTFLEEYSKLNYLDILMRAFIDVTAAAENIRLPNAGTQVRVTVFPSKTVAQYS
Sequence of Integrin α6β1 (chain, as listed by the source, chain 2 of 2): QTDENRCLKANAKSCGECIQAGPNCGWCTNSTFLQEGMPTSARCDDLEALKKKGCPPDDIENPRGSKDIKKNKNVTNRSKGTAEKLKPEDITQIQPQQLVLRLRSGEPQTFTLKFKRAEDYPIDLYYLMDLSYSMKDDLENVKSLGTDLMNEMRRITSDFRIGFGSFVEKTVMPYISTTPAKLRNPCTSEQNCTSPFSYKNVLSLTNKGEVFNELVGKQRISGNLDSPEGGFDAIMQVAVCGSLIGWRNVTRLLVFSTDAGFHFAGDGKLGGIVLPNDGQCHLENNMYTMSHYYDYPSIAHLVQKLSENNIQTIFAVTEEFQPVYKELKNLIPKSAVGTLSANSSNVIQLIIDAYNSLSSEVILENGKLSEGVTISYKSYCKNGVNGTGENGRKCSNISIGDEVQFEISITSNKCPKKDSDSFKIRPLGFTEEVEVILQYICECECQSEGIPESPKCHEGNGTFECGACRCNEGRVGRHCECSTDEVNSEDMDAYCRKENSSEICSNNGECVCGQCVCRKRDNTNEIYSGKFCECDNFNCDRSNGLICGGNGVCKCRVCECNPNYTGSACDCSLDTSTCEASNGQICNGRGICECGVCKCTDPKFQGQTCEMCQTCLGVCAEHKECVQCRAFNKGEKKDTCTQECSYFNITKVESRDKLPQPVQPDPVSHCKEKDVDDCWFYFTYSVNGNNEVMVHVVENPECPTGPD

On to CRWYDANAC (disulfide 1-9 (inferred), also called P6), for which the Kd (usually the free concentration of one partner at which half of the binding sites on the other are occupied at equilibrium, for simple one-to-one binding) turned out to be 1.21 µM in assay [1], 7.99 µM in assay [2], 3.83 µM in assay [3] and 4.34 µM in assay [5]. The “Affinity relative to RWY” value in assay [4] stood at 1.61 fold.

Turning to RWYDAN (Straight-chain peptide; also called P11), the Kd in assay [1] was found to be 34.6 µM; in assay [2] it was 23.2 µM; in assay [3] it was 35.7 µM; in assay [5], 31.2 µM. The “Affinity relative to RWY” value in assay [4] is 0.22 fold.

With CAWYDENAC (disulfide 1-9 (inferred), also called P2), the Kd in assay [1] is 4.03 µM; in assay [2], 12.1 µM; in assay [3], 3.58 µM; in assay [5], 6.58 µM. In assay [4], the “Affinity relative to RWY” value worked out at 1.06 fold.

B1: RWYD (peptide)
peptide: RWYD
notes: also called P15; linear quaternary polypeptide RWYD
Consider B1, for which the Kd came out at 53.1 nM in assay [6]; 0.02 µM in assay [1]; 0.018 µM in assay [2]; 0.026 µM in assay [3]; 0.02 µM in assay [5]; 21.8 nM in assay [7]. Also, the “Affinity relative to RWY” value in assay [4] worked out at 327 fold.

Regarding RWYAEN (Straight-chain peptide; also called P16), the equilibrium dissociation constant (Kd) is 7.31 µM in assay [1], 6.08 µM in assay [2], 9.74 µM in assay [3] and 7.71 µM in assay [5]. The “Affinity relative to RWY” value in assay [4] turned out to be 0.9 fold.

RWYDANA (Straight-chain peptide; also called P10): the Kd in assay [1] came to 62.1 µM; in assay [2], 17.5 µM; in assay [3], 12.4 µM; in assay [5], 30.7 µM. In addition, in assay [4], the “Affinity relative to RWY” value was found to be 0.23 fold.

For the molecule RWYDEN (Straight-chain peptide; also called P9), the Kd turned out to be 9.69 µM in assay [1], 8.73 µM in assay [2], 13.1 µM in assay [3] and 10.5 µM in assay [5]. Besides, the “Affinity relative to RWY” value in assay [4] is 0.66 fold.

Turning to CRAYDENAC (disulfide 1-9 (inferred), also called P3), the Kd in assay [1] is 14.4 µM; in assay [2], 11.8 µM; in assay [3] it was 13.8 µM; in assay [5], 13.3 µM. Further, the “Affinity relative to RWY” value in assay [4] came to 0.52 fold.

B2: RWYD-PEG4-K-NOTA (peptide)
peptide: RWYD[PEG4′]K-{NOTA′}
notes: The unlabelled form was used in MST; also called RD
On to B2, for which the Kd in assay [8] was 642 nM.

Turning to RWYDE (Straight-chain peptide; also called P13), the Kd stood at 14.7 µM in assay [1], 78.8 µM in assay [2], 99.6 µM in assay [3] and 64.4 µM in assay [5]. Also, the “Affinity relative to RWY” value in assay [4] is 0.11 fold.

CRWYDENAC (disulfide 1-9 (inferred), also called P1): the Kd turned out to be 8.59 µM in assay [1], 6.52 µM in assay [2], 5.81 µM in assay [3] and 6.97 µM in assay [5]. The “Affinity relative to RWY” value in assay [4] was 1 fold.

In the case of RWYDEA (Straight-chain peptide; also called P12), the Kd came out at 5.26 µM in assay [1], 2.49 µM in assay [2], 1.74 µM in assay [3] and 3.16 µM in assay [5]. In addition, the “Affinity relative to RWY” value in assay [4] was determined as 2.2 fold.

On to RWYDA (Straight-chain peptide; also called P14), for which the Kd was determined as 6.28 µM in assay [1], 4.69 µM in assay [2], 4.22 µM in assay [3] and 5.06 µM in assay [5]. In addition, the “Affinity relative to RWY” value in assay [4] was 1.38 fold.

B3: (RWYD-PEG4)2-K-K-NOTA (peptide)
peptide: RWYD
modifications: not fully specified; each RWYD carries PEG4 at its C-terminus; two RWYD-PEG4 units are joined through lysine, followed by K-NOTA: (RWYD-PEG4)2-K-K-NOTA
notes: also called RD2; RD2 dimer
B3: in assay [8], binding was characterised by a dissociation constant (Kd) of 64.8 nM and the “fold increase of affinity against RWYD-PEG4-K-NOTA” value was about 10 fold.

Consider CRWYAENAC (disulfide 1-9 (inferred), also called P5), for which the Kd worked out at 0.36 µM in assay [1], 0.22 µM in assay [2], 0.65 µM in assay [3] and 0.41 µM in assay [5]. In addition, in assay [4], the “Affinity relative to RWY” value came out at 17 fold.

Turning to CRWYDEAAC (disulfide 1-9 (inferred), also called P7), the Kd worked out at 0.25 µM in assay [1], 0.25 µM in assay [2], 1.37 µM in assay [3] and 0.62 µM in assay [5]. In assay [4], the “Affinity relative to RWY” value was determined as 11.2 fold.
